Molecular target: T1, TLR8 (Homo sapiens, UniProt Q9NR97)
T1 construct: expressed in transfected cells
T1 sequence (Q9NR97 27-1041): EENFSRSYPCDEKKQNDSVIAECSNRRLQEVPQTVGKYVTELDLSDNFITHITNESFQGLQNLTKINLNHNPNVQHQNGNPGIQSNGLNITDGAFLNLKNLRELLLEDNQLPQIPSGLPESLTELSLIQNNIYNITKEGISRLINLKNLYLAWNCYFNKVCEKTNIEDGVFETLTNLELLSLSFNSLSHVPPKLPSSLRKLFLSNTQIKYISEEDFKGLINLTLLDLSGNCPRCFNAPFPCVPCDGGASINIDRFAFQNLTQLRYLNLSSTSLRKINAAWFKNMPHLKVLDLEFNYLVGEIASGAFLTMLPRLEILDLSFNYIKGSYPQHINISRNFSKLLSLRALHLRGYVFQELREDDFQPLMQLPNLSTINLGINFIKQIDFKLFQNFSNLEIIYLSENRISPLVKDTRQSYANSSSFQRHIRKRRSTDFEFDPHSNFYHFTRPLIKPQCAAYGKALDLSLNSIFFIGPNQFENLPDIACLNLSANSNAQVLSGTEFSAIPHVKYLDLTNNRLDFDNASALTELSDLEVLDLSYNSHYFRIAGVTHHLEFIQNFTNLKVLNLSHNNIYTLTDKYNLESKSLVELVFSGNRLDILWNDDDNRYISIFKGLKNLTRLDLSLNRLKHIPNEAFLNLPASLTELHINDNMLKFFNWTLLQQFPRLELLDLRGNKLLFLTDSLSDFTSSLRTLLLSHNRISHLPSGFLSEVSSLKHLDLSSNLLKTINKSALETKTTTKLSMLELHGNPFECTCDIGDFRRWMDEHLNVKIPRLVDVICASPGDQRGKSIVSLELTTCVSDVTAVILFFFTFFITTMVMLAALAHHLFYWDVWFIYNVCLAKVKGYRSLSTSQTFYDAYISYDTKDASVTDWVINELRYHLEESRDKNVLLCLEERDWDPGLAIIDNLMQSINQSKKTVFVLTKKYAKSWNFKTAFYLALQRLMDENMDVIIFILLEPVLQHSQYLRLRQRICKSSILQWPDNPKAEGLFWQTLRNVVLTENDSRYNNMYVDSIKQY
Experiment: CL075-induced NFκB reporter assay in HEK293_TLR8 cells
Format: cell-based
Details: peptide 1, 5 or 25 μM, 2.5 μg/ml CL075, 6 h
Description: FIG. 12 is a bar chart showing the effect of A467 and A464 on TLR8-induced NFκB activation in HEK293 cells. HEK293_TLR8 cells were transfected with 60 ng NFκB-Luciferase and 20 ng of TK-Renilla reporter genes, as in FIG. 11. A467 (SEQ ID NO. 23) and A464 (SEQ ID NO. 20) were added to the cells at a concentration of 1, 5 or 25 μM the next day and cells were stimulated with 2.5 μg/ml CL075 1 hour after treatment with the peptide. Cells were harvested and assayed for NFκB activation by reporter gene assay 6 hr after stimulation with the agonist. No peptides were added to the control wells (black bars). Data is representative of at least three experiments each performed in triplicate. Data are expressed as mean fold induction±s.d. relative to control levels;
HEK293 cells were transfected using GeneJuice® a proprietary non-toxic transfection reagent. 200 μl/well cells at a density of 1×10^5 cells/ml were seeded the day before transfection. 0.8 μl of GeneJuice was mixed with 9.2 μl of serum-free DMEM (SFM) per transfection and incubated for 5 min at room temperature before adding the appropriate amount of the plasmid DNA. The GeneJuice/SFM/DNA mixture was then incubated at room temperature for 15 min before adding to the cells. […] Luciferase activity was analysed using a luminometer. […]

KYSFKLILAEYRRRRRRRRR [Peptide A464]
inhibition of TLR8-dependent NFκB activation: neither A467 (SEQ ID No. 23) nor A464 (SEQ ID No. 20) had any inhibitory effect
